From PMC12381214 (2025)
Residue numbers refer to the chain shown, from its start. Numbers in names are those of the source.

B1: human Izumo1 ectodomain E71A (Izumo1E71A-His10-SpyTag-LPETGG) (domain or fragment)
chain: CVICDPSVVLALKSLEKDYLPGHLDAKHHKAMMERVENAVKDFQELSLNADAYMGVVDEATLQKGSWSLLKDLKRITDSDVKGDLFVKELFWMLHLQKETFATYVARFQKEAYCPNKCGVMLQTLIWCKNCKKEVHACRKSYDCGERNVEVPQMEDMILDCELNWHQASEGLTDYSFYRVWGNNTETLVSKGKEATLTKPMVGPEDAGSYRCELGSVNSSPATIINFHVTVLP
modifications: glycosylated (sites not given); SpyTag joined by an isopeptide bond to a SpyCatcher polyprotein
B2: human Izumo1 ectodomain H157A (Izumo1H157A-His10-SpyTag-LPETGG) (domain or fragment)
chain: B1 chain with A50E, H136A
modifications: glycosylated (sites not given); SpyTag joined by an isopeptide bond to a SpyCatcher polyprotein
B3: human Izumo1 ectodomain R160A (Izumo1R160A-His10-SpyTag-LPETGG) (domain or fragment)
chain: B1 chain with A50E, R139A
modifications: glycosylated (sites not given); SpyTag joined by an isopeptide bond to a SpyCatcher polyprotein

target: human Juno ectodomain, wild type (Juno-His10-SpyTag-LPETGG) (human, glycosylated (sites not given); SpyTag joined by an isopeptide bond to a SpyCatcher polyprotein); assay: FACS
Sequence (chain, as listed by the source): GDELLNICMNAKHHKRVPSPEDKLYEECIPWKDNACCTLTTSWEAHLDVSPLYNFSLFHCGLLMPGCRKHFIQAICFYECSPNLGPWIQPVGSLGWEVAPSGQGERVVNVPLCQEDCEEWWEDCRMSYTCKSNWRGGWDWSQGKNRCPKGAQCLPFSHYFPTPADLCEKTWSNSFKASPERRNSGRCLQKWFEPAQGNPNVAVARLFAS

| Kd | Binder |
| --- | --- |
| 43 nM | B1 |
| 243 nM | B2 |
| 157 nM | B3 |
